Laboratory results published in patent publication US20230140435.

Target: free tubulin (tubulin dimers) of isolated rat cardiomyocytes

Protein	free:polymerized tubulin ratio (microtubule fractionation assay, western blot, isolated rat cardiomyocytes)
tubulin tyrosine ligase (TTL) (protein) MYTFVVRDENSSVYAEVSRLLLATGHWKRLRRDNPRFNLMLGERNRLPFGRLGHEPGLVQLVNYYRGADKLCRKASLVKLIKTSPELAESCTWFPESYVIYPTNLKTPVAPAQNGIQPPISNSRTDEREFFLASYNRKKEDGEGNVWIAKSSAGAKGEGILISSEASELLDFIDNQGQVHVIQKYLEHPLLLEPGHRKFDIRSWVLVDHQYNIYLYREGVLRTASEPYHVDNFQDKTCHLTNHCIQKEYSKNYGKYEEGNEMFFKEFNQYLTSALNITLESSILLQIKHIIRNCLLSVEPAISTKHLPYQSFQLFGFDFMVDEELKVWLIEVNGAPACAQKLYAELCQGIVDIAISSVFPPPDVEQPQTQPAAFIKL	Both TTL and TTL-E331Q overexpression increased the amount of free tubulin relative to polymerized microtubules
TTL catalytic-dead construct (TTL-E331Q) (protein) MYTFVVRDENSSVYAEVSRLLLATGHWKRLRRDNPRFNLMLGERNRLPFGRLGHEPGLVQLVNYYRGADKLCRKASLVKLIKTSPELAESCTWFPESYVIYPTNLKTPVAPAQNGIQPPISNSRTDEREFFLASYNRKKEDGEGNVWIAKSSAGAKGEGILISSEASELLDFIDNQGQVHVIQKYLEHPLLLEPGHRKFDIRSWVLVDHQYNIYLYREGVLRTASEPYHVDNFQDKTCHLTNHCIQKEYSKNYGKYEEGNEMFFKEFNQYLTSALNITLESSILLQIKHIIRNCLLSVEPAISTKHLPYQSFQLFGFDFMVDEELKVWLIQVNGAPACAQKLYAELCQGIVDIAISSVFPPPDVEQPQTQPAAFIKL	Both TTL and TTL-E331Q overexpression increased the amount of free tubulin relative to polymerized microtubules
